This note sets out measurements from patent US20250154198A1, “PEPTIDE INHIBITORS OF INTERLEUKIN-23 RECEPTOR” (Zealand Pharma A/S, priority 2021, published 2025).

The target in the assay is T1, human IL-23R endogenously expressed on DB cells (CRL-2289) (human, UniProt Q5VWK5 24-629).
T1 sequence (looked up): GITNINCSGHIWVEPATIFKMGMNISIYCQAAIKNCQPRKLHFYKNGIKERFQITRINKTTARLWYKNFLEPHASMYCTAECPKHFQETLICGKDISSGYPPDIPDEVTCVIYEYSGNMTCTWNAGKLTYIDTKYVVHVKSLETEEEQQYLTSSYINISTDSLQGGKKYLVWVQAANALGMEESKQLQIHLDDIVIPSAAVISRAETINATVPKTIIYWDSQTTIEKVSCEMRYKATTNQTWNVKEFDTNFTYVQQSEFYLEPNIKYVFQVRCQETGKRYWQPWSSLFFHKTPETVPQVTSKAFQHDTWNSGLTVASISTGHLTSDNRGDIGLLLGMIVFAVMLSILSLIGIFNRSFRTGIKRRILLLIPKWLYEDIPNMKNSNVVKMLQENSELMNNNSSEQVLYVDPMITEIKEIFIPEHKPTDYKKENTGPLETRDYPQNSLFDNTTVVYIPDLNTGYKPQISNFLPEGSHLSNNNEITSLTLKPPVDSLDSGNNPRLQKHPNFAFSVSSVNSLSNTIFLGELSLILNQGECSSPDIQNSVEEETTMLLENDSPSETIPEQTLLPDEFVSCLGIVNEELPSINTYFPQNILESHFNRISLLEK
In words: cell-based or functional assay.

*1 amine or outer side, *2 acyl side, *3 side chain or, on linkers, in order; H or OH if unused. Bridges are numbered along the chain shown (N, C = ends). [ ]: non-standard residue; d: D form. 1,3‑dibromopropan‑2‑one = linker (CAS 816-39-7) joining two Cys as 1,3-dithio-propan-2-one bridge -SCH2C(=O)CH2S-; 4‑(2-Aminoethyl)benzoyl = O=C(c1ccc(CCN[*:1])cc1)[*:2]; Bip = N[C@@H](Cc1ccc(-c2ccccc2)cc1)C(=O)O; 2Nal = N[C@@H](Cc1ccc2ccccc2c1)C(=O)O; AEF = NCCOc1ccc(C[C@H](N)C(=O)O)cc1; αMeR = C[C@](N)(CCCNC(=N)N)C(=O)O; αMeL = CC(C)C[C@](C)(N)C(=O)O; CH2COCH2 = O=C(C[*:1])C[*:2]; 3Amb = NCc1cccc(C(=O)O)c1

Consider [3‑(4-Aminophenyl)propanoyl]SCWQC[AEF][2Nal][αMeL]ER-NH2 (lactam N-10; linker 3-6 via CH2COCH2) [Compound 51], for which the “IC50 (pSTAT3)” value was determined as 68.1 nM.

B1: Compound 38 (peptide)
peptide: [3Amb]SCWQC[AEF][2Nal][αMeL]ER-NH2
modifications: lactam N-10; linker 3-6 via CH2COCH2
SMILES: CC(C)C[C@]1(C)NC(=O)[C@H](Cc2ccc3ccccc3c2)NC(=O)[C@H](Cc2ccc(OCCN)cc2)NC(=O)[C@@H]2CSCC(=O)CSC[C@H](NC(=O)[C@H](CO)NC(=O)c3cccc(c3)CNC(=O)CC[C@@H](C(=O)N[C@@H](CCCNC(=N)N)C(N)=O)NC1=O)C(=O)N[C@@H](Cc1c[nH]c3ccccc13)C(=O)N[C@@H](CCC(N)=O)C(=O)N2
Turning to B1, the “IC50 (pSTAT3)” value was determined as 19.3 nM. Ac-DCQCWQCYW[αMeL]CR-NH2 (linker 2-11, 4-7 via CH2COCH2) [Compound 63]: the “IC50 (pSTAT3)” value is above 1 µM. Turning to [(4-Aminomethyl)benzoyl]SCWQC[AEF][2Nal][αMeL]ER-NH2 (lactam N-10; linker 3-6 via CH2COCH2) [Compound 49], the “IC50 (pSTAT3)” value turned out to be 20.3 nM. The figure for Ac-DCQCWQC[2Nal]W[αMeL]CR-NH2 (linker 2-11, 4-7 via CH2COCH2) [Compound 62] is above 1 µM.

B2: Compound 56 (peptide)
peptide: Ac-DEQCWQC[2Nal]W[αMeL]KR-NH2
modifications: lactam 2-11; linker 4-7 via CH2COCH2
SMILES: CC(=O)N[C@@H](CC(=O)O)C(=O)N[C@H]1CCC(=O)NCCCC[C@@H](C(=O)N[C@@H](CCCNC(=N)N)C(N)=O)NC(=O)[C@](C)(CC(C)C)NC(=O)[C@H](Cc2c[nH]c3ccccc23)NC(=O)[C@H](Cc2ccc3ccccc3c2)NC(=O)[C@@H]2CSCC(=O)CSC[C@H](NC(=O)[C@H](CCC(N)=O)NC1=O)C(=O)N[C@@H](Cc1c[nH]c3ccccc13)C(=O)N[C@@H](CCC(N)=O)C(=O)N2
Take B2: the “IC50 (pSTAT3)” value is above 1 µM.

B3: Compound 36 (peptide)
peptide: XSCWQCWXLER
HELM: PEPTIDE1{[bAla].S.C.W.Q.C.W.[O=C([C@H](Cc1ccc2ccccc2c1)N[*:1])[*:2]].L.E.R.[am]}|CHEM1{[O=C(C[*:1])C[*:2]]}$PEPTIDE1,PEPTIDE1,1:R1-10:R3|PEPTIDE1,CHEM1,3:R3-1:R1|PEPTIDE1,CHEM1,6:R3-1:R2$$$V2.0
SMILES: CC(C)C[C@@H]1NC(=O)[C@H](Cc2ccc3ccccc3c2)NC(=O)[C@H](Cc2c[nH]c3ccccc23)NC(=O)[C@@H]2CSCC(=O)CSC[C@H](NC(=O)[C@H](CO)NC(=O)CCNC(=O)CC[C@@H](C(=O)N[C@@H](CCCNC(=N)N)C(N)=O)NC1=O)C(=O)N[C@@H](Cc1c[nH]c3ccccc13)C(=O)N[C@@H](CCC(N)=O)C(=O)N2
On to B3, for which the “IC50 (pSTAT3)” value is above 1 µM.

B4: Compound 26 (peptide)
peptide: Ac-KSC[Bip]QCW[2Nal]LER-NH2
modifications: lactam 1-10; linker 3-6 via CH2COCH2
SMILES: CC(=O)N[C@H]1CCCCNC(=O)CC[C@@H](C(=O)N[C@@H](CCCNC(=N)N)C(N)=O)NC(=O)[C@H](CC(C)C)NC(=O)[C@H](Cc2ccc3ccccc3c2)NC(=O)[C@H](Cc2c[nH]c3ccccc23)NC(=O)[C@@H]2CSCC(=O)CSC[C@H](NC(=O)[C@H](CO)NC1=O)C(=O)N[C@@H](Cc1ccc(-c3ccccc3)cc1)C(=O)N[C@@H](CCC(N)=O)C(=O)N2
In the case of B4, the “IC50 (pSTAT3)” value was above 1 µM.

B5: Compound 39 (peptide)
peptide: [3Amb]SCWQC[AEF][2Nal]LER-NH2
modifications: lactam N-10; linker 3-6 via CH2COCH2
SMILES: CC(C)C[C@@H]1NC(=O)[C@H](Cc2ccc3ccccc3c2)NC(=O)[C@H](Cc2ccc(OCCN)cc2)NC(=O)[C@@H]2CSCC(=O)CSC[C@H](NC(=O)[C@H](CO)NC(=O)c3cccc(c3)CNC(=O)CC[C@@H](C(=O)N[C@@H](CCCNC(=N)N)C(N)=O)NC1=O)C(=O)N[C@@H](Cc1c[nH]c3ccccc13)C(=O)N[C@@H](CCC(N)=O)C(=O)N2
With B5, the “IC50 (pSTAT3)” value was determined as 19.6 nM.

B6: Compound 42 (peptide)
peptide: [3Amb]SCWQC[AEF][2Nal][αMeL]E[αMeR]-NH2
modifications: lactam N-10; linker 3-6 via CH2COCH2
SMILES: CC(C)C[C@]1(C)NC(=O)[C@H](Cc2ccc3ccccc3c2)NC(=O)[C@H](Cc2ccc(OCCN)cc2)NC(=O)[C@@H]2CSCC(=O)CSC[C@H](NC(=O)[C@H](CO)NC(=O)c3cccc(c3)CNC(=O)CC[C@@H](C(=O)N[C@@](C)(CCCNC(=N)N)C(N)=O)NC1=O)C(=O)N[C@@H](Cc1c[nH]c3ccccc13)C(=O)N[C@@H](CCC(N)=O)C(=O)N2
As to B6, the “IC50 (pSTAT3)” value is 24.7 nM.

B7: Compound 50 (peptide)
peptide: [4‑(2-Aminoethyl)benzoyl]SCWQC[AEF][2Nal][αMeL]ER-NH2
modifications: lactam N-10; linker 3-6 via CH2COCH2
SMILES: CC(C)C[C@]1(C)NC(=O)[C@H](Cc2ccc3ccccc3c2)NC(=O)[C@H](Cc2ccc(OCCN)cc2)NC(=O)[C@@H]2CSCC(=O)CSC[C@H](NC(=O)[C@H](CO)NC(=O)c3ccc(cc3)CCNC(=O)CC[C@@H](C(=O)N[C@@H](CCCNC(=N)N)C(N)=O)NC1=O)C(=O)N[C@@H](Cc1c[nH]c3ccccc13)C(=O)N[C@@H](CCC(N)=O)C(=O)N2
For B7, the “IC50 (pSTAT3)” value turned out to be 51.1 nM. For H-DCSEWQKWWLCR-NH2 (linker 2-11 via 1,3‑dibromopropan‑2‑one; lactam 4-7) [Compound 5], the “IC50 (pSTAT3)” value is above 1 µM.

B8: Compound 44 (peptide)
peptide: [3Amb]SCWQC[AEF][2Nal][αMeL]ES-NH2
modifications: lactam N-10; linker 3-6 via CH2COCH2
SMILES: CC(C)C[C@]1(C)NC(=O)[C@H](Cc2ccc3ccccc3c2)NC(=O)[C@H](Cc2ccc(OCCN)cc2)NC(=O)[C@@H]2CSCC(=O)CSC[C@H](NC(=O)[C@H](CO)NC(=O)c3cccc(c3)CNC(=O)CC[C@@H](C(=O)N[C@@H](CO)C(N)=O)NC1=O)C(=O)N[C@@H](Cc1c[nH]c3ccccc13)C(=O)N[C@@H](CCC(N)=O)C(=O)N2
As for B8, the “IC50 (pSTAT3)” value came to 82.3 nM. For the molecule H-LCSCWQCWWLCR-NH2 (linker 2-11, 4-7 via CH2COCH2) [Compound 2], the “IC50 (pSTAT3)” value was determined as 755 nM. Regarding Ac-DESCAQCWWLKR-NH2 (lactam 2-11; linker 4-7 via 1,3‑dibromopropan‑2‑one) [Compound 13], the “IC50 (pSTAT3)” value was above 1 µM.

Consider Ac-DESCWQCAWLKR-NH2 (lactam 2-11; linker 4-7 via 1,3‑dibromopropan‑2‑one) [Compound 14], for which the “IC50 (pSTAT3)” value was above 1 µM. Next, Ac-DESCWQCWALKR-NH2 (lactam 2-11; linker 4-7 via 1,3‑dibromopropan‑2‑one) [Compound 15]: above 1 µM.
